The source of these data is PMC3760765, “A Meiosis-Specific Form of the APC/C Promotes the Oocyte-to-Embryo Transition by Decreasing Levels of the Polo Kinase Inhibitor Matrimony” (PLoS Biology, 2013).

The target of test [1] is T1, GST-tagged Mtrm (Matrimony) (Drosophila melanogaster, UniProt Q23973 1-217).
T1 construct: mtrm cDNA LD47919 cloned into pGEX6p-1; also called GST-Mtrm; source: expressed and purified from bacteria
T1 sequence (looked up): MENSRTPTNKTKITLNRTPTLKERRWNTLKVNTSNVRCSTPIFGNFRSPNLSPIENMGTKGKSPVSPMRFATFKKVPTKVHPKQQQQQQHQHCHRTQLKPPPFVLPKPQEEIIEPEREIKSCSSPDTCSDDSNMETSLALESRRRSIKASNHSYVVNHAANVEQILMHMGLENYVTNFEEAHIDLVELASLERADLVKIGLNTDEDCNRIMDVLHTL
The experiment in a line: pull-down; purified GST-tagged protein on beads incubated with 5 µl in vitro translation reaction (reticulocyte lysate) in 500 µl IP buffer, 2 h at 4°C; 3 washes; Western blot with anti-Myc 9E10. The settings on record: one partner purified. Background: Immunoblotting shows a protein as a band on a membrane.

Another test addresses T2, GST-CycA (Cyclin A) (UniProt P14785 1-491).
T2 construct: Cyclin A; construct not described in the methods
T2 sequence (looked up): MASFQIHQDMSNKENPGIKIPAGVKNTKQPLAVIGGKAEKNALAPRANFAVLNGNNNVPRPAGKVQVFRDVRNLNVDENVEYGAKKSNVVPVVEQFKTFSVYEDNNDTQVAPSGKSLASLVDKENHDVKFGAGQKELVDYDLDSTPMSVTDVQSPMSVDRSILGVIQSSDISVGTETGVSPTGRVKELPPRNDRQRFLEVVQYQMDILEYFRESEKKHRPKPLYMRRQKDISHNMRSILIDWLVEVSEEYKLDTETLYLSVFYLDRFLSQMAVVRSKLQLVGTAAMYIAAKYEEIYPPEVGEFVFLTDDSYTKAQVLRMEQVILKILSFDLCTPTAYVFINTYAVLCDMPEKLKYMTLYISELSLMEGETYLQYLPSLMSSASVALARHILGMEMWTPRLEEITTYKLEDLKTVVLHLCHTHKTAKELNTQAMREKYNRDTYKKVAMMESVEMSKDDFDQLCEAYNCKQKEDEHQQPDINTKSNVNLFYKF
The description is as above. Particulars: one partner purified.

B1: 6×Myc-Cortex (full length), in vitro translated (natural protein, Drosophila melanogaster, UniProt Q960N3 1-483, looked up)
chain: MFVEMSVCDSPNKNSKLDKKSLTPFKKVRRKNWKQEAAYKSDTSKGQEVSYVGERFIPNRFERENIEFNLKYIGKRKERDILETGVTLTASYWRQSGFISNINRTFGIGERRLFQFSSQQGTRSRVVDNDSADSDWPCNPRARPYAIQNATHEMPGICSPVDYNMMDWSSGGMVAMSSGQDVMLWRNLDESTMVFSVESPTSLKYSPDGKHLAIGCMDRNYPVLDLWEVRSPTEFLVSYRKLFFKSMGYISCIEWSHDGKEVICGTQCGVIIVLAMPTLNTLMQLREHRHTVKKMKFAPTHKYFASSDTDGKIFIFDAVLKVRLLKLDGRSIVFDWHPWTGEDLAVAERSPASIFIFNIPRRQFVASYRRRDDRIVIKTLTYSKITGELLVNVIRRDDADLAVCEILVLASLNRVVDLMSHQDRGTLFLMWNPDGTKIATGGLDDTFSLWNFFPTYKREAILRKQEQKAKDKCSSLSLYKGIR
notes: 6×myc-cort cDNA cloned into pOT2; also called Myc-tagged Cort; source: in vitro translated (TnT T7 Coupled Reticulocyte Lysate System, rabbit reticulocyte lysate)
Turning to B1, the “fold binding to GST-Mtrm against 6×Myc-CortΔWD40” value in test [1] was determined as 5.8 fold.

B2: 6×Myc-Fzy/Cdc20, in vitro translated (natural protein, Drosophila melanogaster, UniProt Q24044 1-526, looked up)
chain: MSQFNFVSDLQNALIMDGETRGPAPRWKKKLEASLNGSVNTTRSVLSVSYNTSFSGVQAPTKTPGKSSEGKTKKSNTTPSKTPGGGDRFIPNRAATNFELAHFLVNKDSGDKSDEENDKATSSNSNESNVQASAHKGDRQKLISEVAQVGDSKGGRILCYQNKAPAAPETHNNPLKVVYSIKTPISTKSGSRYIPTTSERILDAPDFINDYYLNLMDWSADNIVAVALGSCVYLWNAQTGNIEQLTEFEEGDYAGSLSWIQEGQILAIGNSTGAVELWDCSKVKRLRVMDGHSARVGSLAWNSFLVSSGSRDGTIVHHDVRAREHKLSTLSGHTQEVCGLKWSTDFKYLASGGNDNLVNVWSAASGGVGTATDPLHKFNDHQAAVRALAWCPWQPSTLASGGGTADRCIKFWNVNNGTLMKSVDSKSQVCSLLFSRHYKELISAHGFANNQLTIWKYPTMVKQADLTGHTSRVLQMAMSPDGSTVISAGADETLRLWNCFAPDPLASKKAVSTSKGKQSVFRQSIR
notes: 6×myc-fzy/cdc20 cDNA cloned into pOT2; also called Myc-tagged Fzy/Cdc20; Fizzy; source: in vitro translated (TnT T7 Coupled Reticulocyte Lysate System, rabbit reticulocyte lysate)
On to B2, for which, in the test with GST-CycA (Cyclin A), the “fold binding to GST-CycA against binding to GST-Mtrm” value amounted to 155 fold.
